# Earlier results as cited in publication PMC11634773 (Nature, 2024).
# Details: humans, basal insulin
substance,measurement,value
insulin glargine,c.v. for traditional needle-based subcutaneous pen injection,33%
